Measurements: the nanobody polyreactivity screen of Harvey et al. (2022)

Assay: yeast display, Sf9 membrane polyspecificity reagent, FACS + sequencing; frameworks hold sequencing errors
Procedure, shortened: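 Polyreactivity labels are assigned by the sorting gate from which each nanobody was recovered. The gates were low and high (top ~1%), set on anti-HA fluorescence for expression and streptavidin fluorescence for reagent binding. Before sorting, galactose-induced (36–48 hours) yeast display cells were stained for 1 hour at 4 °C with 10% biotinylated, detergent-solubilized Sf9 membrane reagent.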

Sequence	polyreactivity (PSR sort gate)
QVQLVESGGGLVQAGGSLRLSCAASGFIFLRYGMGWYRQAPGKERELVASIDSSGGSTYADSVKGRFTISRDNEKNTVFLQMKSLKPEDTAVYYCAADYYIVSVRDYWGQGTQVTVSS	low polyreactivity
QVQLVESGGGLVQAGGSLRLSCAASGIIFYDYAMGWYRQAPGKERELVAAISKRGGSTYYADSVKGRFTISRDNAKNTVYLQMNSLKPEDTAVYYCAAKYYRYGDPDRYDYWGQGTQVTVSS	high polyreactivity
QVQLVESGGGLVQAGGSLRLSCAASGSIFYVYAMGWYRQAPGKERELVAAITSSGTTNYADSVKGRFTISRDNAKNTVYLQMNSLKPEDTAVYYCAADFYYYKKQYDYWGQGTQVTVSS	low polyreactivity
QVQLVESGGGLVQAGGSLRLSCAASGRIFLGNAMGWYRQAPGKERELVAAIDASGGSTYYADSVKGRFTISRDNAKNTVYLQMNSLKPEDTAVYYCAADRGFLRSFAPGNMDYWGQGTQVTVSS	low polyreactivity
QVQLVESGGGLVQAGGSLRLSCASSGRIFAHNAMGWYSQAPGKERELVAAINSGGSTDYADSVKGRFTISRDNAKNTVYLQMNSLKPEDTAVYYCAADDPGSFPDDSWGQGTQGTVSS	low polyreactivity
QVQLVESGGGLVQAGGSLRLSSAASGFIFIIYAMGWYRPAPGKERELVAGIRWSGGSTYYADSVKGRFTISRDNAKNTVYLQMNSLKPEDTAVYYCNKDRGSLTLYTYDYWGQGTQVTVSS	low polyreactivity
QVQLVESGGGLVQAGGSLRLSCAASGRIFWANTMGWYRQAPGKERELVAAITYSGDSTYYADSVKGRFTISRDNAKNTVYLQMNSLKPEDTAVYYCNAVPSKFSWAVYRGQYDYDYWGQGTQVTVSS	low polyreactivity
QVQLVESGGGLVQAGGSLRLSCAASGSTLTYYVMGWSRQAPGKERELVAAITDSGGGTYYADSVKGRFTISRDNAKNTVYLQMNSLKPEDTAVYYCNAYYPYGLASFYYWGQGTQVTVSS	low polyreactivity
QVQLVESGGGLVQAGGSLRLSCAASGSTFYEYAMGWYRQAPGKERELVAAISWSDVDTYYADSVKGRFTISRDNAKNTVYLQMNSLKPEDTAVYYCAAEWYHPYTQEMDYWGQGTQVTVSS	high polyreactivity
QVQLVESGGGLVQAGGSLRLSCAASGITFIYYHMGWYRQAPGKERELVAAINWSGGRTYYADSVKGRFTISRDNAKNTVYVQMNSLIPEDTAVYYCAADSWRPVYLGYYWGQGTQVTVSS	high polyreactivity
QVQLVESGGGLVQAGGSLRLSCAASGRILTSNAMGWYRQAPGKERELVAAISWSGGSTYYADSVKGRFTISRDNAKNTVYLQMNSLKPEDTAVYYCNADDTPVPSIRFDYWGQGTQVTVSS	low polyreactivity
QVHLVESGGGLVQAGGSLRLSCAASGITFHGYAMGWYRQAPGKERELVAAISDSGSSTYYADSVKGRFTISRDNAKNTVYLQMNSLKPEDTAVYYCAAVSGFYDQYDYWGQGTQVTVSS	low polyreactivity
QVQLVESGRGLVHAGGSLRLSCAASGFILGVNERGWYRQAPGKERELVAAISQGDGSKYYADSVKGRFTISRDNANNTVYLQMNSLKPEDTAVYYCNAELYRDLRGYDHWGQGTQVTVSS	low polyreactivity
QVQLVESGGGLVQAGGSLRLSCDASGSTFYYNAMGWYRQAPGKERELVADISRGGSTYYADSVKGRFTISRDNAKNTVYLQMNSLKPEDTAVYDCAAQTYLLSQWWWFDIDYGYWGQGTQVTVSS	low polyreactivity
QVQLVESGGGLVQAGGSLRLSCAASGFIIYSYAMGWYRQAPGKERELVAGITSDGRTYYADSVKGRFTISRDNAKNTVYLQMNSLKPEDTAVYYCAARYYLFYRVSPYYYWGQGTQVTVSS	low polyreactivity
QVQLVESGGGLVQAGGSLRLSCAASGFTFLNYAMGWYRQAPGKERELVAAITRSGGSTYYADSVKGRFTISRDTAKNTVYLQMNSLKPEDTAVYYCAIGYYSPNYYYWGQGTQVTVSS	high polyreactivity
QVQLVESVGGLVQAGGSLRLSCAASGFIFYGYAMGWYRQAPGKERELVAAISRSGTSTYYADSVKGRFTISRDNAKNTVYLQMNSLKPEDTAVYYCAADYVGWKWGSRGAIYKHYYWGQGTQVTVSS	high polyreactivity
QVQQQESGGGLVKAGGSLRLSCAASGNNSPRDAMGWYRQAPGEERDLVASNAYSAITYYADGVKGRYTISRDNAKNTVYLQMNSLKPEDTEVYYCAVYQFTYPVFPAYWGQGTQVTVSS	low polyreactivity
QEQLQESGGGLVQAGGSLYLSCAASGNIFEYYDMGWYRQGKERELVAGISYGTNTNYAVSVKGRFTISRDIAKNTVYLQMNSLKPEDTAVYYCARRIGHGSRPYWLETWLYPYDYWGQGTQVTVSS	low polyreactivity
QVQLVESGGGLVQAGGSLRLICAASGRIFRYNAMGWYRQAPGKERELVAAISSVGSTNYADSVKGRFTISRDNAKNTVYLQMNSLKPEDTAVYYCNAVVRSYVKTYRYYKVDYWGQGTQVTVSS	high polyreactivity
QVQLVESGGGLVQAGGSLRLSCAASGFTFPWYAMGSSRQAPGKERELVASISYRGDSTYYADSVKGRFTISRDNAKKTVNLQMNSLKPEDTAVYYCNKRLASYYLPGFDYWGQGTQVTVSS	low polyreactivity
QVQLVESGAGLVQAGGSLRLSCAASGTIFRDYAMGWYRQAPGKERELVAAISSDGSTYYADSVKGRFTISRDNAKNTVYLEMNSLKPEDTAAYYCNARSYYPWEGFDYWGQGTQVTVSS	low polyreactivity

Sequence	polyreactivity (PSR sort gate)
QVQLVESGGGLVQAGGSLRLSCAASGRIFRYYAMGWYRQAPGKERELVAAITWRGSSTYYADSVKGRFTISRDNAKNTVYLQMNSLKPEDTAVYYCNKLRSPHGYIRPGYDYWGQGTQVTVSS	high polyreactivity
QVQLVESGGGVVQAGGSLRLSCAASGRISDVYVMGWYRQAPGKERELVAAITWSGGDTYYADSVKGRFTISRDNAKNTVYLQMNSLKPEDTAVYYCNADTGKWGGNGWYEFDYWGQGTQVTVSS	low polyreactivity
RVQHVESGGGLVQAGGSLRLSCAASGYTFEAYAMGWYRPAPGKERELVAAINYSGGSTYADSVKGRFTISRDNAKNNVYLQMHSLKPEDTAVYYCATRLYGYWTYGFDYWGQGTQVTVSS	low polyreactivity
QVQLVESGGGLVQAGGSLRLSCAASGSIFRYYVMGWYRQAPGKERELVATISRSGGRTYYADSVKGRFTISRDYAKNTVYLQMNSLKPEDTAVYYCARTYGGYPTTYDYWGQGTQVTVSS	high polyreactivity
QVQLVESGGGLVQAGGSLRLSCAASGRIFPVYTMGWYRQAPGKERELVAAITSSGGSTYYADSVKGRFTISRDNAKNTVYLQMNSLKPEDTAVYYCAKRAGWAYYYWGQGTQVTVSS	high polyreactivity
QVQLVESGGGLVQAGGSLRLSFAASGSILYIYAMGWYRQAPGKERELVASISRSGGRTYDADSVNGRFTISRDNAKNTVYLQMNSLKPEDTAVYYCDAVTGGGSKMDYWGQGTQVTVSS	high polyreactivity
QVQLVESGGGLVQAGGSLRLSCAASGRIFTHNDMGWYRQAPGKERELVAAITSGGRTTYADSVKGRFTISRDNAKNTVYLQMNSLKPEDTAVYYCNADTCLGSLDFDKRDYWGQGTQVTVSS	low polyreactivity
QVKIVESVGGLVQSGGSLRLSCAASGRTFHRNARGLYREAPGTEREWVATITTNGGATDYADTVTGRFTSSRDNAKNTFYFHMHSQIPEDTAVYYCSAPFNPRVRPLGSVRMYYWGQGTQVTVSS	low polyreactivity
QVQLVESGGGLVQAGGSLRLSCAASGSTLYYNAMGWYRQAPGKERELVAAITSGGSTSYADSVKGRFTISRDNAKNTVYLQMNSLKPEDTAVSSCAAVFYRRFDYWGQGTQVTVSS	low polyreactivity
QVQLVESGVGLFQAGGSLRLTCAASGSTFYLNDMGWYRQAPAKERELVAAIDWSGGSTYYADSVKGRFTNSRDNAKYYGYLQMNSLTPEDTAVYYCAARLFYEWRRLDYFIAWDYWGHGTQVTVSS	low polyreactivity
QVQLVESGGGLLQAGGSLRLSCAASGSIFRRNAMGWYRQAPGKERELVAAITTRGSRTTYADSVKGRFTISRDNAKNTVYLQMNSLKPEDTAVYYCAARQHFSYSFHVAYDYWGQGTQVTVSS	high polyreactivity
QVQLVESGGGLVQAGGSLRLSCAASGRIFILNTMGWYRQAPGKERELVAGISYSGSTYYADSVKGRFTISRDNAKNTVYSQMNSLKPVDTAVYYCAADYDAAWYNDGYYYWGQGTQVTVSS	low polyreactivity
QVQLVESGGGLVQAGGSLRLSCAASGSTFDYYPMGWYRQAPGKERELVAAITYSGGRTSYADSVKGRFTISRDNAKNTVYLQMNSLKPEDTAVYYCAAVYDGQYYASYSTYDYDYWGQGTQVTVSS	low polyreactivity
QVQLVESGGGLVQAGGSLRLSCAASGSIFGVNAMGWYRQAPGKERELVATISASGGSTYYADSVKGRFTISRDNAKNTVYLQMNSLKPEDTAVYYCATVVSPSPEMDYWGQGTQVTVSS	low polyreactivity
QVQLVESGVGLVQAGGSLRLSCAASGLTFLYYAMAWLRQAPGKERELVAVISSGGRTYYADSVKGRFTISRDNAKNTVYLQMHSLKPEDTAVYYCAAYDPYYQSTFDYWGQGTQVTVSS	high polyreactivity
QVQLVESGGGLVQAGGSLRLSSAASGNIMDVYAMGWYRQAPGKERELVAAISGTDGSTYYADSVKGRFTISRDNAKNTVYLQMNSLKPEDTAVYYCAAEYVYFWWGENYWGQGTQVTVSS	high polyreactivity
QLQLVESGGGLVQAGGSLRLSCAASGRIFQRYAMGWYRQAPGKERELVAGITSSGGSTYYADSVKGRFTISRDNAKNTVYLQMNSLKPEDTAVYYCNAGGELRYYGYRAGGTTRSYDYWGQGTQVTVSS	low polyreactivity
QVQLVESGGGLVQAGGSLRLSCAASGSIFYSNVMGWYRLAPGKERELVAAITRGGGTNYADSVKGRFTISRDNAKNTVYLQMNSLKPEDTAVYYCNRDPQKYRWIPRYDYWGQGTQVTVSS	low polyreactivity
QVKLVESGGGLVQAGGSLRLTCDASGRIFSSYAMGWYRQAPGKERELVAAIRSSGDRTYYADSVKGRFTISRDNAKNTVYLQMNSLKPEDTAVYYCAARAVLKSWAYYYWGQGTQVTVSS	high polyreactivity
QVQLVESGGGLVQAGGSLRLSCASSGITFSFYVMGWYRQAPGKERELVAAISRGGSTYYADSVKGRFTISRDNANNTVYLQMNSLKPEDSAVYYCAAVRLSRVYYWGQGTQVTVSS	high polyreactivity
QVQLVESGGGVGQAGGSLRLSCAASGSTFDRYTMGWYRQAPGKERELVAAISISGGSTYYADSVKGRFTISRDNAKNTVYLQMNSLKPEVTEVYYCAARLDTVTDYYYWGQGTQVTVSS	low polyreactivity
